Measured values reported in article PMC12108596, “Functional Characterization of MIP_07528 of Mycobacterium indicus pranii for Tyrosine Phosphatase Activity Displays Sensitivity to Oxidative Inactivation and Plays a Role in Immunomodulation” (Biology, 2025).

Tested on: O=[N+]([O-])c1ccc(OP(=O)(O)O)cc1
Experiment: purified protein
[1] = pH 7.5 (20 mM Tris, 150 mM NaCl), 37 °C, 2-8 mM pNPP

Q: “rMIP_07528 (rPtpB-MIP, rMIPPtpB) (Mycobacterium intracellulare ATCC 13950)” was tested. Which Km [1] did it give?
A: 300 µM

Q: What about the kcat [1] of the same substance?
A: 0.005 s⁻¹

Q: “rPtpB-Mtb (rMTBPtpB) (Mycobacterium tuberculosis H37Rv)” was tested. Which Km (pH 7.5, 37.0 °C) did it give?
A: 1010 µM
